Reference: patent publication US7807387B2, “Biological agent that causes IL-6 receptor release” (Meyer Pharmaceuticals LLC, priority 2003, dated 2010)

Key:
[1] = tested on: carrageenan-induced paw edema; experiment: Carrageenan-induced paw edema; format: in vivo, Sprague Dawley rats
Method: Based on the standard model (Winter et al., Proc Soc Exp Biol Med 111:544, 1962; Hansra et al., Inflammation 24:141, 2000), the experiment was performed as follows. Male Sprague Dawley rats were randomized by weight into three treatment groups. The animals were administered MP8 or control solution subcutaneously, or indomethacin by mouth. One hour later, they were injected in the left hind paw with a sterile solution of 1% carrageenan suspension in water, in order to induce swelling. Three hours later, the volume of the injected paw was measured by water displacement in a water plethysmograph (mean±SEM; 10 animals per group).
Male Sprague Dawley rats were administered with test protein or indomethacin (anti-inflammatory control), and then challenged in a hind footpad with carrageenan, as in Example 12.

p55 or p75 TNF receptor = conditions: cited from earlier work
p55 TNF Receptor = p55 TNF Receptor (Homo sapiens, UniProt P19438); experiment: FRET peptide cleavage assay, p55 TNF receptor peptide; format: biochemical; conditions: Zn++ 0.1 mM, Ca++ 2 mM, corrected for EDTA, 37° C. for 3 hours
Method: Cytokine-specific proteolytic activity can rapidly be quantified by Fluorescence Resonance Energy Transfer (FRET). Peptides having the amino acid sequence of the TNF Receptor or other protein substrates are labeled at opposite ends with a fluorescence emitter and a fluorescence quencher. The peptide is then incubated with a source of receptor cleaving enzyme, and fluorescence is measured. The quenching group normally absorbs fluorescence from the emitter. But enzymatic cleavage of the peptide decouples the quenching group, and fluorescence emission increases proportionally.
The peptides used as substrates in the cleavage assay were taken from the known sites of proteolytic cleavage of the whole protein. The peptides were labeled with the fluorescence emitter (Edans-●) at the C-terminal, and the quenching hapten (Dabcyl-▴) at the N-terminal.
The assay is conducted in the presence of the metal cations Zn^++ (0.1 mM) and Ca^++ (2 mM), and corrected for cleavage in the presence of EDTA (20 mM). Dependence on divalent cations confirms that the enzyme activity measured in this assay is a metalloprotease. The assay mixture also contains a cocktail of protease inhibitors and bovine albumin. Cleavage is measured as the net change in fluorescence emission after incubating the enzyme with the peptide at 37° C. for 3 hours. […]

TNF receptor = experiment: Cell surface cleavage assay, release of TNF receptor isoforms by enzyme immunoassay; format: cell-based; conditions: 25 μg protein with 2.5×10^6 cells; (treated—untreated)/untreated
Method: To determine cell surface cleavage activity, 25 μg of MP8-FL2 was combined with 2.5×10^6 cells. Release of both TNF receptor isoforms was determined by enzyme immunoassay as (treated—untreated)/untreated.

Isoelectric point = format: physicochemical
LPS-induced septic shock = experiment: LPS/galactosamine-induced septic shock model; format: in vivo, Balb/c mice; conditions: up to 40 μg one hour before 10 μg LPS and 15 mg galactosamine
Method: A classic model for determining effectiveness of agents against cytokine-mediated inflammation is endotoxin-induced septic shock (Morrison et al., J Infect Dis 162:1063, 1990).
The septic shock experiment was conducted as follows. Female Balb/c mice were randomized by weight into 6 treatment groups. Sepsis was induced by injecting 10 μg LPS and 7 mg galactosamine in the lateral or dorsal caudal vein. Some of the groups were pretreated with 50,000 FU of MP8 simultaneously or 3 hours in advance of the LPS challenge to determine whether there was a protective effect.
FIG. 8 is a Kaplan-Meier survival curve, showing the mortality in each of the treatment groups in the study. Without any treatment or challenge, there is no effect on the animals, and the line stays at the top. Life-compromising challenge causes the line to fall to the bottom of the graph in a step-wise fashion as each animal succumbs. Treatment that is protective against the challenge maintains the line near the top of the graph.
The enzyme was administered in a volume of 110 μL at one hour before the LPS challenge.
Stability of the clinical effect of MP8 was determined in the septic shock model. Female Balb/c mice were injected with 300,000 FU of MP8 that had been stored for 4 days at −70° C., or 7 days at 4° C. One hour later, the mice were challenged with 10 μg LPS and 7 mg galactosamine as before.
In this example, durability of receptor cleavage in vivo was determined by treating animals subcutaneously up to three days in advance with 300,000 FU of MP8. The mice were then challenged with […] LPS and 7 mg galactosamine in the usual fashion.
Sepsis was induced in Balb/c mice by administering 10 μg LPS and […] galactosamine, as in Example 3. Randomized groups were pretreated with up to 40 μg MP8-FL2 one hours in advance of the LPS challenge.

COc1ccc2c(c1)c(CC(=O)O)c(C)n2C(=O)c1ccc(Cl)cc1 [indomethacin, reference compound]
inhibition of edema formation ([1]; given one hour before carrageenan, paw volume three hours later, MP8 subcutaneously, indomethacin by mouth): 49%

B1: ADAM-10: metalloprotease (protein, UniProt O14672 214-748, looked up)
Disintegrin and …: TTSAEKNTCQLYIQTDHLFFKYYGTREAVIAQISSHVKAIDTIYQTTDFSGIRNISFMVKRIRINTTADEKDPTNPFRFPNIGVEKFLELNSEQNHDDYCLAYVFTDRDFDDGVLGLAWVGAPSGSSGGICEKSKLYSDGKKKSLNTGIITVQNYGSHVPPKVSHITFAHEVGHNFGSPHDSGTECTPGESKNLGQKENGNYIMYARATSGDKLNNNKFSLCSIRNISQVLEKKRNNCFVESGQPICGNGMVEQGEECDCGYSDQCKDECCFDANQPEGRKCKLKPGKQCSPSQGPCCTAQCAFKSKSEKCRDDSDCAREGICNGFTALCPASDPKPNFTDCNRHTQVCINGQCAGSICEKYGLEECTCASSDGKDDKELCHVCCMKKMDPSTCASTGSVQWSRHFSGRTITLQPGSPCNDFRGYCDVFMRCRLVDADGPLARLKKAIFSPELYENIAEWIVAHWWAVLLMGIALIMLMAGFIKICSVHTPSSNPKLPPPKPLPGTLKRRRPPQPIQQPQRQRPRESYQMGHMRR
cleavage of p55 or p75 TNF receptor (p55 or p75 TNF receptor): do not efficiently cleave

B2: MP8-FL2: full length MP8 (SEQ. ID NO:53) without HIS tag, produced from E. coli strain MP820 (protein, listed as Homo sapiens)
chain: MCVHPGACLPHVGVSWAEFPGHFSVELSSLLVRNVNYEIPSLKKQIAKCQQLQQEYSRKEEECQAGAAEMREQFYHSCKQYGITGENVRGELLALVKDLPSQLAEIGAAAQQSLGEAIDVYQASVGFVCESPTEQVLPMLRFVQKRGNSTVYEWRTGTEPSVVERPHLEELPEQVAEDAIDWGDFGVEAVSEGTDSGISAEAAGIDWGIFPESDSKDPGGDGIDWGDDAVALQITVLEAGTQAPEGVARGPDALTLLEYTETRNQFLDELMELEIFLAQRAVELSEEADVLSVSQFQLAPAILQGQTKEKMVTMVSVLEDLIGKLTSLQLQHLFMILASPRYVDRVTEFLQQKLKQSQLLALKKELMVQKQQEALEEQAALEPKLDLLLEKTKELQKLIEADISKRYSGRPVNLMGTSL
cleavage of p55 TNF receptor (R1) peptide (p55 TNF Receptor): caused cleavage | cleavage and release of TNF receptor from the cell surface (TNF receptor): cause cleavage and release of TNF receptor, with preference for the R1 (p55) isoform | paw swelling ([1]; challenge in hind footpad with carrageenan as in Example 12): significantly prevented paw swelling | Isoelectric Point - By isoelectric focusing (Isoelectric point): 5.6 | protection against septic shock (LPS-induced septic shock): protected the mice in a dose-dependent fashion

B3: MDC-9: metalloprotease (protein, UniProt Q13443 29-819, looked up)
Disintegrin and …: AARPGFQQTSHLSSYEIITPWRLTRERREAPRPYSKQVSYVIQAEGKEHIIHLERNKDLLPEDFVVYTYNKEGTLITDHPNIQNHCHYRGYVEGVHNSSIALSDCFGLRGLLHLENASYGIEPLQNSSHFEHIIYRMDDVYKEPLKCGVSNKDIEKETAKDEEEEPPSMTQLLRRRRAVLPQTRYVELFIVVDKERYDMMGRNQTAVREEMILLANYLDSMYIMLNIRIVLVGLEIWTNGNLINIVGGAGDVLGNFVQWREKFLITRRRHDSAQLVLKKGFGGTAGMAFVGTVCSRSHAGGINVFGQITVETFASIVAHELGHNLGMNHDDGRDCSCGAKSCIMNSGASGSRNFSSCSAEDFEKLTLNKGGNCLLNIPKPDEAYSAPSCGNKLVDAGEECDCGTPKECELDPCCEGSTCKLKSFAECAYGDCCKDCRFLPGGTLCRGKTSECDVPEYCNGSSQFCQPDVFIQNGYPCQNNKAYCYNGMCQYYDAQCQVIFGSKAKAAPKDCFIEVNSKGDRFGNCGFSGNEYKKCATGNALCGKLQCENVQEIPVFGIVPAIIQTPSRGTKCWGVDFQLGSDVPDPGMVNEGTKCGAGKICRNFQCVDASVLNYDCDVQKKCHGHGVCNSNKNCHCENGWAPPNCETKGYGGSVDSGPTYNEMNTALRDGLLVFFFLIVPLIVCAIFIFIKRDQLWRSYFRKKRSQTYESDGKNQANPSRQPGSVPRHVSPVTPPREVPIYANRFAVPTYAAKQPQQFPSRPPPPQPKVSSQGNLIPARPAPAPPLYSSLT
cleavage of p55 or p75 TNF receptor (p55 or p75 TNF receptor): do not efficiently cleave
